Assay results as given in patent US20240261333A1, “NOVEL TARGETS FOR ENHANCING ANTI-TUMOR IMMUNITY” (THE BROAD INSTITUTE, INC., priority 2021, published 2024).

Tests used:
MOV10 (human) = biological target: T1, MOV10 (human) (UniProt Q9HCE1); assay: co-IP, anti-FLAG, lysate of cells with C-FLAG B3GNT2; mass spectrometry
T1 sequence (looked up): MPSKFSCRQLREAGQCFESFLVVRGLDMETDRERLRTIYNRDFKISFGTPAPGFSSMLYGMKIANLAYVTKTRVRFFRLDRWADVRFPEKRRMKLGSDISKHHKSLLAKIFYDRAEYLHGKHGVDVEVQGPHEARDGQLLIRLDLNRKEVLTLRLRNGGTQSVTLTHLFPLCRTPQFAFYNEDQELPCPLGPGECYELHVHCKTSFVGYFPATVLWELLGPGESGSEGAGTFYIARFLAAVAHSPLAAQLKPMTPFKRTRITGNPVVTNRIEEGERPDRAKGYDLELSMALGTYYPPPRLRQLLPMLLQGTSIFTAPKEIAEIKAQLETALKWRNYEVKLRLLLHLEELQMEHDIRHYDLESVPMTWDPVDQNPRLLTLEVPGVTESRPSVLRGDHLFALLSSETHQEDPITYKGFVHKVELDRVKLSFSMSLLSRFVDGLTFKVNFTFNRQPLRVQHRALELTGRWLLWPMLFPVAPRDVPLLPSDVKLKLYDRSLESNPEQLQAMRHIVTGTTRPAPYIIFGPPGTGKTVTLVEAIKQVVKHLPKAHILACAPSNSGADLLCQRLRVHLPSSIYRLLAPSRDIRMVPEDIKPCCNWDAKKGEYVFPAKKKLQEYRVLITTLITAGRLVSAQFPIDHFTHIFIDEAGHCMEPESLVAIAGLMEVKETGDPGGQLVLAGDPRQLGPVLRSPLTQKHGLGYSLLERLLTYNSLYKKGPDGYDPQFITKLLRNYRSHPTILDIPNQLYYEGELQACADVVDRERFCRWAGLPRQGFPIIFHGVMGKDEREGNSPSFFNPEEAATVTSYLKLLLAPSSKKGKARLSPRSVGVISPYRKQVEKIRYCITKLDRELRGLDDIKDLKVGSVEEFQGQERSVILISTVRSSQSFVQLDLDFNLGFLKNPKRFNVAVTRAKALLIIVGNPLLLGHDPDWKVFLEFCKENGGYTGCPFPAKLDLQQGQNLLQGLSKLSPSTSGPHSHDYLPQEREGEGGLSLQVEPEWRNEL

CSE1L (human) = CSE1L (human) (UniProt P55060); assay: as above
CSE1L (human), sequence (P55060 other isoform, or with tags, fused parts or gaps limits assumed): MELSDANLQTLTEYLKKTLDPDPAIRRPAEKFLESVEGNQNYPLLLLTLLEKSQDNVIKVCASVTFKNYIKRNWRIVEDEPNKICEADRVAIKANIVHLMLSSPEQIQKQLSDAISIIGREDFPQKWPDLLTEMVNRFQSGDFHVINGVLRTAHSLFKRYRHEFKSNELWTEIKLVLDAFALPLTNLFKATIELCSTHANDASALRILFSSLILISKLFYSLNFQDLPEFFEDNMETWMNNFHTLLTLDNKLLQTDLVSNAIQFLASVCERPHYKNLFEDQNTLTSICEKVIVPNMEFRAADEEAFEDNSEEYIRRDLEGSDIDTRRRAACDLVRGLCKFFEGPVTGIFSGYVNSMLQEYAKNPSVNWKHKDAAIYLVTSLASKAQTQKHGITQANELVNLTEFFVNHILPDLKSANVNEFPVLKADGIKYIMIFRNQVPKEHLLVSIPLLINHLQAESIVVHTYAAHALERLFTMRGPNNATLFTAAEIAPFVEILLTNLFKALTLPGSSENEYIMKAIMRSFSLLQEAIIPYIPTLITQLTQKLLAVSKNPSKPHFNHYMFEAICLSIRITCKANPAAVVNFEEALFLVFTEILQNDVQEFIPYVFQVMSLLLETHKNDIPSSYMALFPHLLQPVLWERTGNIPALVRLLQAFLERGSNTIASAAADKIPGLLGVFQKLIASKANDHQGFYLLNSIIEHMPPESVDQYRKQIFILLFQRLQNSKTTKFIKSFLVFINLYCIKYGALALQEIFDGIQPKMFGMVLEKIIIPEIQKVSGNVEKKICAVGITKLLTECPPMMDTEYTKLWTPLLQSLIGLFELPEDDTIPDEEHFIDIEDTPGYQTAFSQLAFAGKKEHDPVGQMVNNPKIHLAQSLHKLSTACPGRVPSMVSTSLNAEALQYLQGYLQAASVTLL

PARP1 (human) = PARP1 (human) (UniProt P09874); assay: as above
RPL18 (human) = RPL18 (human) (UniProt Q07020); assay: as above
HSPA8 (human) = HSPA8 (human) (UniProt P11142); assay: as above
HSPA8 (human), sequence (P11142 2-646 limits assumed): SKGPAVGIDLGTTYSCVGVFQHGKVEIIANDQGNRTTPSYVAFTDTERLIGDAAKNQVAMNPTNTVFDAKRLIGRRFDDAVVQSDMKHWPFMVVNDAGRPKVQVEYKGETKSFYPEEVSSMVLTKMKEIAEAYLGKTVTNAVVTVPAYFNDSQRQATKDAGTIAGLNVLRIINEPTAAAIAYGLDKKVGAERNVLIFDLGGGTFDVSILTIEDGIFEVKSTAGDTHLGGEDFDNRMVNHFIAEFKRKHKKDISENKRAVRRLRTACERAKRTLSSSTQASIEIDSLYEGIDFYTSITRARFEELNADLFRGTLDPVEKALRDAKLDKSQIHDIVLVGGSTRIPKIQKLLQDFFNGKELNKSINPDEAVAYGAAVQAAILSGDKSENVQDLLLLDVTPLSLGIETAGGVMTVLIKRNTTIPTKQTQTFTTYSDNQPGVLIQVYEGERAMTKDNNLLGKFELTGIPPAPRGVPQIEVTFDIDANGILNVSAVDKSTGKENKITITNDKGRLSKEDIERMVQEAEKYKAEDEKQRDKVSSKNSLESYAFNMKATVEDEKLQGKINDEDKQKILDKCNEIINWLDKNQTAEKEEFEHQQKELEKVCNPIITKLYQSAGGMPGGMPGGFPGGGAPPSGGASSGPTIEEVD

KRT4 (human) = KRT4 (human) (UniProt P19013); assay: as above
SPTAN1 (human) = SPTAN1 (human) (UniProt Q13813); assay: as above
RPL13 (human) = RPL13 (human) (UniProt P26373); assay: as above
HADHB (human) = HADHB (human) (UniProt P55084); assay: as above
HADHB (human), sequence (P55084 34-474 limits assumed): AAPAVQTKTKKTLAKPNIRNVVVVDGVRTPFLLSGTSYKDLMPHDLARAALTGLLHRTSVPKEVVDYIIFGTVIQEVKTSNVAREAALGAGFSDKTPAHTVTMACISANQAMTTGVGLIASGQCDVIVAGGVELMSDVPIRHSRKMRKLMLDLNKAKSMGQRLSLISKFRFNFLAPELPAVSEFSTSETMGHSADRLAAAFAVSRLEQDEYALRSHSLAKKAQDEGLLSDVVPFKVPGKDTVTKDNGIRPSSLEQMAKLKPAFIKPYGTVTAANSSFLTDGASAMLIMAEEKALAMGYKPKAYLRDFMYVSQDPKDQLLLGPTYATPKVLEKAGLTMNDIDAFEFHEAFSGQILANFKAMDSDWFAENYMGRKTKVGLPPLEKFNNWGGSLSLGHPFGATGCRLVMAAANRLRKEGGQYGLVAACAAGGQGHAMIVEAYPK

LSM12 (human) = LSM12 (human) (UniProt Q3MHD2); assay: as above
LSM12 (human), sequence (Q3MHD2 2-195 limits assumed): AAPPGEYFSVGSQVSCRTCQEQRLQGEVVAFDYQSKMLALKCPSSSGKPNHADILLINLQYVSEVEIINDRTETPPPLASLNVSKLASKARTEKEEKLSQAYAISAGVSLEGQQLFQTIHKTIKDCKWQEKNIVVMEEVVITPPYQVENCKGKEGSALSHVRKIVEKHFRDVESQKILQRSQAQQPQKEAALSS

ARPC4 (human) = ARPC4 (human) (UniProt P59998); assay: as above
SERBP1 (human) = biological target: T2, SERBP1 (human) (UniProt Q8NC51); assay: as above
T2 sequence (looked up): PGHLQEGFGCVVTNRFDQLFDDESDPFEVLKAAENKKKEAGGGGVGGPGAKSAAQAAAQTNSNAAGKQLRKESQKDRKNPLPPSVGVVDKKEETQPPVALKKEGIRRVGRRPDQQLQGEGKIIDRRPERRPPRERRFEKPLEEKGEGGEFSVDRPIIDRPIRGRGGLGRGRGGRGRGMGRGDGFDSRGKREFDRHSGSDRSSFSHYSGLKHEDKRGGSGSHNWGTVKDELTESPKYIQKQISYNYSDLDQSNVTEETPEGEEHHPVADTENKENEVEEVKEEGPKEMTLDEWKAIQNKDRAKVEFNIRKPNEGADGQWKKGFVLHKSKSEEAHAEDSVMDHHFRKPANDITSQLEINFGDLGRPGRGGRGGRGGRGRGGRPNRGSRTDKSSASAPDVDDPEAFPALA

RPS28 (human) = RPS28 (human) (UniProt P62857); assay: as above
TIMP3 (human) = TIMP3 (human) (UniProt P35625); assay: co-IP with mouse anti-FLAG from lysate of cells overexpressing C-FLAG B3GNT2, then mass spectrometry
TIMP3 (human), sequence (P35625 24-211 limits assumed): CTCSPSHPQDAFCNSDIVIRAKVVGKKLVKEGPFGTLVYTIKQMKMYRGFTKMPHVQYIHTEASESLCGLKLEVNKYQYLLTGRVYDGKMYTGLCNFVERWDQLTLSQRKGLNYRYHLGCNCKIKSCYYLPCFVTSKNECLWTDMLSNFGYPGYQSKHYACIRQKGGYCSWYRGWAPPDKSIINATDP

TFAM (human) = TFAM (human) (UniProt Q00059); assay: as above
TFAM (human), sequence (Q00059 43-246 limits assumed): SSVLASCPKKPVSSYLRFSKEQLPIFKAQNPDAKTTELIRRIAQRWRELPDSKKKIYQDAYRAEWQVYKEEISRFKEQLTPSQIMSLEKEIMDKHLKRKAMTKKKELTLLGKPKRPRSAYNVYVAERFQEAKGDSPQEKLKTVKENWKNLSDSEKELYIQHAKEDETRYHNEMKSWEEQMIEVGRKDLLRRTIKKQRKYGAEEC

SUPT16H (human) = SUPT16H (human) (UniProt Q9Y5B9); assay: as above
SUPT16H (human), sequence (Q9Y5B9 2-1047 limits assumed): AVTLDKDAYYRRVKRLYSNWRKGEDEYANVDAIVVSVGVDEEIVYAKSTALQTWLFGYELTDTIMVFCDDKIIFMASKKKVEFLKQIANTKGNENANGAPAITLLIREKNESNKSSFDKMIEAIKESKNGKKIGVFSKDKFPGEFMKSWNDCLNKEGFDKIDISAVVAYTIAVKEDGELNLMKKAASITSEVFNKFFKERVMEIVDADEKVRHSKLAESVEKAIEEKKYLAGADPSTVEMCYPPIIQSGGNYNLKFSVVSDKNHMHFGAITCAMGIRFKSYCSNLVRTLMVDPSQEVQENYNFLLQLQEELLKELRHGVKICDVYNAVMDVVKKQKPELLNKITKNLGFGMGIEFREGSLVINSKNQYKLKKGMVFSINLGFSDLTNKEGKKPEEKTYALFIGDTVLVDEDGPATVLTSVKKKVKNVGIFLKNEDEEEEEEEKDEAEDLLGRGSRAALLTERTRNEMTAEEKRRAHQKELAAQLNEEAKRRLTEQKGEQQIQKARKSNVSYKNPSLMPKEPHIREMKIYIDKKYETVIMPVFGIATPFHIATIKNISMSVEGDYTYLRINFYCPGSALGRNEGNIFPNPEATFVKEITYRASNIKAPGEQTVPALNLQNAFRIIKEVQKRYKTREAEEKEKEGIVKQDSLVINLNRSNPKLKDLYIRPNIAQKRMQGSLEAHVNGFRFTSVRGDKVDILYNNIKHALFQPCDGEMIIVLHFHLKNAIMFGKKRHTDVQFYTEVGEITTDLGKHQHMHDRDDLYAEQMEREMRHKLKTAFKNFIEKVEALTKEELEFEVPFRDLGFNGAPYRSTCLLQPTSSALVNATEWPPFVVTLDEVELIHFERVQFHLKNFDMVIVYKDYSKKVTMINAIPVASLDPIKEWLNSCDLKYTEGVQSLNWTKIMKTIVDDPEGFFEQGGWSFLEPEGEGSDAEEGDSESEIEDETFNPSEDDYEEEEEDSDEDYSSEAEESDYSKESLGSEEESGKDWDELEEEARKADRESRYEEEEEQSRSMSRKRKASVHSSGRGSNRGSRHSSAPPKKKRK

TCP1 (human) = TCP1 (human) (UniProt P17987); assay: as above
TCP1 (human), sequence (P17987 whole entry): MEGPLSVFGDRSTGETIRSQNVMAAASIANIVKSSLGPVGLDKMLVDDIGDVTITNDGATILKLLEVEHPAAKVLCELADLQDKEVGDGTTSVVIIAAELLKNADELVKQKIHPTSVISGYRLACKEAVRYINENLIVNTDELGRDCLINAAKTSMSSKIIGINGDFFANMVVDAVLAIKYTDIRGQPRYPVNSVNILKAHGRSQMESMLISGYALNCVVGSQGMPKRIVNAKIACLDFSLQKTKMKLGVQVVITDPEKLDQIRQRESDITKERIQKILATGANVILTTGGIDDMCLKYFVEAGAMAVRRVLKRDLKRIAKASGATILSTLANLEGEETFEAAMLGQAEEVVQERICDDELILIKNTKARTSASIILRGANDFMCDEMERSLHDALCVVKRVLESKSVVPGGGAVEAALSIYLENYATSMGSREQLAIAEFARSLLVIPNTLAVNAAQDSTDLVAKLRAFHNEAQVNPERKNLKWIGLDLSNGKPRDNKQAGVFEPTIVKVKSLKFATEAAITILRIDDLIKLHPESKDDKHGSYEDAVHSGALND

TAF15 (human) = TAF15 (human) (UniProt Q92804); assay: as above
TAF15 (human), sequence (Q92804 other isoform, or with tags, fused parts or gaps limits assumed): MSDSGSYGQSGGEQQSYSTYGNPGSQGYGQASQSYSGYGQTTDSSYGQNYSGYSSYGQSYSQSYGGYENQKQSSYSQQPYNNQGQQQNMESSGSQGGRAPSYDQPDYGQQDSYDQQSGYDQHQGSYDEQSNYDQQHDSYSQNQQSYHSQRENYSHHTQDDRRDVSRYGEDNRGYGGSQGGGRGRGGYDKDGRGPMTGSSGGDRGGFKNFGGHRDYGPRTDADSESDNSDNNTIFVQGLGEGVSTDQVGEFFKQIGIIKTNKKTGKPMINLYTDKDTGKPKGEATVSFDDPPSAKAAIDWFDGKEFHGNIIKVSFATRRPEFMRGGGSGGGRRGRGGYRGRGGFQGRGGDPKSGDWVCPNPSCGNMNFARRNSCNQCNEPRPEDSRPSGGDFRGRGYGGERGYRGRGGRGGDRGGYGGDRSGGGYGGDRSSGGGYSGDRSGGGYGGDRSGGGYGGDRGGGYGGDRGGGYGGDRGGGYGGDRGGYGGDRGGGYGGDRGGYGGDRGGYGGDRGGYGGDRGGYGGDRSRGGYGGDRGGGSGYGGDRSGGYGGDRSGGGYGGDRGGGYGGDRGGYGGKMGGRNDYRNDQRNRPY

MAGED2 (human) = MAGED2 (human) (UniProt Q9UNF1); assay: as above
EIF3I (human) = EIF3I (human) (UniProt Q13347); assay: as above
SRP14 (human) = SRP14 (human) (UniProt P37108); assay: as above
SRP14 (human), sequence (P37108 2-136 limits assumed): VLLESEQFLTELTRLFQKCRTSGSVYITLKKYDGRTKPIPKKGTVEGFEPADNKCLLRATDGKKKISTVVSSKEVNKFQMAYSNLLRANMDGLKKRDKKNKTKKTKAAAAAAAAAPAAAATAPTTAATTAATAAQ

C-terminal FLAG tagged B3GNT2 (from UniProt Q9NY97 1-397) (enzyme)
co-IP mass spectrometry count (MOV10 (human)): 3
co-IP mass spectrometry count (CSE1L (human)): 3
co-IP mass spectrometry count (PARP1 (human)): 3
co-IP mass spectrometry count (RPL18 (human)): 24
co-IP mass spectrometry count (HSPA8 (human)): 49
co-IP mass spectrometry count (KRT4 (human)): 37
co-IP mass spectrometry count (SPTAN1 (human)): 3
co-IP mass spectrometry count (RPL13 (human)): 23
co-IP mass spectrometry count (HADHB (human)): 3
co-IP mass spectrometry count (LSM12 (human)): 4
co-IP mass spectrometry count (ARPC4 (human)): 3
co-IP mass spectrometry count (SERBP1 (human)): 10
co-IP mass spectrometry count (RPS28 (human)): 3
co-IP mass spectrometry count (C-term flag) (TIMP3 (human)): 3
co-IP mass spectrometry count (C-term flag) (TFAM (human)): 3
co-IP mass spectrometry count (C-term flag) (SUPT16H (human)): 3
co-IP mass spectrometry count (C-term flag) (TCP1 (human)): 3
co-IP mass spectrometry count (C-term flag) (TAF15 (human)): 10
co-IP mass spectrometry count (C-term flag) (MAGED2 (human)): 3
co-IP mass spectrometry count (C-term flag) (EIF3I (human)): 3
co-IP mass spectrometry count (C-term flag) (SRP14 (human)): 3
